Test results: patent publication US20140045211A1

Target: CCR1 on HEK293 cells / HEK293 membranes stably expressing CCR1 (UniProt P32246)
Test: cell-based or functional assay

CCR1 on HEK293 cells / HEK293 membranes stably expressing CCR1, sequence (P32246 whole entry): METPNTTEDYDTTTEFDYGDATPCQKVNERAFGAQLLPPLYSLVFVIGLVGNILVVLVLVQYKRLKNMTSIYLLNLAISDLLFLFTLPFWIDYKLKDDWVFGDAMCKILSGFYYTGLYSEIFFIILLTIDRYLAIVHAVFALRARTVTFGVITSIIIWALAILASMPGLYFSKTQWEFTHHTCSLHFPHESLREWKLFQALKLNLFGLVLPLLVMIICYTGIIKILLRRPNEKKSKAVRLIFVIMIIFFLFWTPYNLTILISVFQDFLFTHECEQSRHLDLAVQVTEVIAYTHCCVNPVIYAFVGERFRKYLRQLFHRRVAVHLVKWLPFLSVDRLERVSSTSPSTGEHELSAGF

calcium flux (dose response curve): 2 nM
Substance: CCL14-fluorescein (CCL14 9-74 with added C-terminal cysteine labeled with fluorescein-5-maleimide) (from UniProt Q16627 28-93) (ligand)
